Consider nine substances from paper PMC10636607.

Common to all, as to experiment: BLI
One assay has as its target influenza HA.
Another assay concerns the target SARS-CoV-2 spike.
For assay [1], the target named is biotinylated SARS-CoV-2 fusion peptide.
The target of assay [2] is HCV E2 envelope glycoprotein.
Assay [3] concerns the target HC84.26.5D Fab VH G50R (human).

Where two headings read alike, the source gives them in different places. Where only a bound is given, the exact number is not on record here.

Sequence of HC84.26.5D Fab VH G50R (human) (heavy, as listed by the source, chain 1 of 2): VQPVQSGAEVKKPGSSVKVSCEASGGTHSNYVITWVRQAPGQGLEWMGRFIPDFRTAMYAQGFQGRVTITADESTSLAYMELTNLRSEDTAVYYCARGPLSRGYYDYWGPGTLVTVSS
Sequence of HC84.26.5D Fab VH G50R (human) (light, as listed by the source, chain 2 of 2): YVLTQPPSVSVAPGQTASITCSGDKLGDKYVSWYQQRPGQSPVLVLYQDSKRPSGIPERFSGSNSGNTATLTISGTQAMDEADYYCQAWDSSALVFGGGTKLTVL

In the case of 8F8 (WT) H:S31R, the ratio to parent in the assay with influenza HA is > 100.
Consider Ab326 (WT) H:V50F, for which the ratio to parent with SARS-CoV-2 spike (read off a plot) stood at 9.4.
With COV44-62 Fab (WT) H:R50W, the ratio to parent in assay [1] was > 100.
Regarding COVOX-316 (WT) H:W50R, the ratio to parent with SARS-CoV-2 spike was > 100.
As to H1244 (WT) H:S32Y, the ratio to parent in the assay with influenza HA is > 100.
For the substance HC33.8 (WT) H:S52Y, the ratio to parent in assay [2] was > 100.
For the substance HCV1 (WT) H:W52S, the ratio to parent in assay [2] was > 100.
In turn, “HCV (isolate H77) E2 domain protein (domain or fragment)” registered a fold change in KD against the wild-type Fab in assay [3] of 6 fold.
Consider P008_60 (WT) H:S52R, for which the ratio to parent in the assay with SARS-CoV-2 spike is > 100.
